{"source": "paper PMC2783756", "about": "(Biochemistry, 2009)", "molecules": {"B1": {"name": "Y42H allele of human medium-chain acyl-CoA dehydrogenase: Y42H allele of human medium-chain acyl-CoA dehydrogenase (protein, UniProt P11310 26-421, looked up, variant Y42H)", "Medium-chain specific …": "KANRQREPGLGFSFEFTEQQKEFQATARKFAREEIIPVAAEHDKTGEYPVPLIRRAWELGLMNTHIPENCGGLGLGTFDACLISEELAYGCTGVQTAIEGNSLGQMPIIIAGNDQQKKKYLGRMTEEPLMCAYCVTEPGAGSDVAGIKTKAEKKGDEYIINGQKMWITNGGKANWYFLLARSDPDPKAPANKAFTGFIVEADTPGIQIGRKELNMGQRCSDTRGIVFEDVKVPKENVLIGDGAGFKVAMGAFDKTRPVVAAGAVGLAQRALDEATKYALERKTFGKLLVEHQAISFMLAEMAMKVELARMSYQRAAWEVDSGRRNTYYASIAKAFAGDIANQLATDAVQILGGNGFNTEYPVEKLMRDAKIYQIYEGTSQIQRLIVAREHIDKYKN"}, "B2": {"name": "1–184: NKX3.1 (1–184) construct, recombinant with N-terminal hexahistidine sequence (protein, UniProt Q99801 1-184, looked up, fragment)", "chain": "MLRVPEPRPGEAKAEGAAPPTPSKPLTSFLIQDILRDGAQRQGGRTSSQRQRDPEPEPEPEPEGGRSRAGAQNDQLSTGPRAAPEEAETLAETEPERHLGSYLLDSENTSGALPRLPQTPKQPQKRSRAAFSHTQVIELERKFSHQKYLSAPERAHLAKNLKLTETQVKIWFQNRRYKTKRKQL", "modifications": "N-terminal His6 tag"}, "B3": {"name": "114–184: NKX3.1 homeodomain construct, recombinant with N-terminal hexahistidine sequence (protein, UniProt Q99801 114-184, looked up, fragment)", "chain": "PRLPQTPKQPQKRSRAAFSHTQVIELERKFSHQKYLSAPERAHLAKNLKLTETQVKIWFQNRRYKTKRKQL", "modifications": "N-terminal His6 tag"}}, "key": {"[1]": {"test_system": "medium-chain acyl-CoA dehydrogenase", "conditions": "activity drops significantly for changes in temperature as small as 3 °C; ref [21]; cited from earlier work"}, "[2]": {"test_system": "DNA", "conditions": "previously observed for N-terminal construct; ref [6]; cited from earlier work"}, "[3]": {"test_system": "NKX3.1 homeodomain", "experiment": "CD thermal unfolding of NKX3.1 constructs", "type": "physicochemical", "conditions": "with and without His tag sequence; within error (±1 °C)"}}}
{"molecule": "B1", "values": [{"measurement": "Thermal stability and activity", "setting": "[1]", "result": "lower thermal stability"}]}
{"molecule": "B2", "values": [{"measurement": "DNA binding", "setting": "[2]", "result": "weaker DNA binding"}]}
{"molecule": "B3", "values": [{"measurement": "Effect of His tag on unfolding transition temperature", "setting": "[3]", "result": "the same unfolding transition temperature within error"}]}
